This passage reports OD results from patent US20130251719A1.

The target of this experiment is PCV2-ORF2-antigens coated on ELISA plates (porcine circovirus type 2 (PCV2)). The experiment can be described thus: competitive ELISA on PCV2-ORF2-antigens, competitor HRP-conjugated anti-PCV2 mab; residual signal of the mab. (In an ELISA, binding on a coated surface is turned into a signal by an enzyme label.)

Substance “positive control of commercialized testkit (Ingenasa)” returned an OD of 0.343 OD at 450 nm.
